According to paper PMC11796321:

Legend:
[1] = biological target: recombinant his-tagged soluble human IL-6R (human) (UniProt P08887); test: SPR; Biacore X100, multi-cycle, NTA sensor chip; his-tagged soluble hIL-6R or hIL-11R immobilised (100-250 RU per cycle); cytokines injected 133.33 to 0.183 nM, 30 uL/min, 180 s, dissociation 800 s; 25 °C, PBS with 0.05% P20 and 50 uM EDTA; two-state reaction fit
[2] = biological target: recombinant his-tagged soluble human IL-11R (human) (UniProt Q14626); test: as above
Chain of recombinant his-tagged soluble human IL-11R (human) (Q14626 24-370): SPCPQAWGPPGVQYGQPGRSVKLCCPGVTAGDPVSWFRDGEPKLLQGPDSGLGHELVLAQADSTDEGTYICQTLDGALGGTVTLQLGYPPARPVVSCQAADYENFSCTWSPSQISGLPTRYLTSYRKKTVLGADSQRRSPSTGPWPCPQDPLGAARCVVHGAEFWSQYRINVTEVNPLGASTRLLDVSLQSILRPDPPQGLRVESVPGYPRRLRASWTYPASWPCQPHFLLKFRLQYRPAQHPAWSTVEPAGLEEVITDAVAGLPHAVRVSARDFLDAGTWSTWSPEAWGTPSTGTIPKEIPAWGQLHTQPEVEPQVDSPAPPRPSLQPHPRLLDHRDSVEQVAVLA

Chain of chimeric cytokine IC7, Twin-Strep-tagged (IC7ts) (P05231 30-212, change not shown): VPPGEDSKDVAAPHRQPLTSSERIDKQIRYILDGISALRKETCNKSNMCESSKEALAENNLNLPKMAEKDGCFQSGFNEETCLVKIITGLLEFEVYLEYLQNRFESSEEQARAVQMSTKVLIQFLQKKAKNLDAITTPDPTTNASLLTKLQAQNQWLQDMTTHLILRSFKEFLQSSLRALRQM
Chain of recombinant his-tagged soluble human IL-6R (human) (P08887 20-365): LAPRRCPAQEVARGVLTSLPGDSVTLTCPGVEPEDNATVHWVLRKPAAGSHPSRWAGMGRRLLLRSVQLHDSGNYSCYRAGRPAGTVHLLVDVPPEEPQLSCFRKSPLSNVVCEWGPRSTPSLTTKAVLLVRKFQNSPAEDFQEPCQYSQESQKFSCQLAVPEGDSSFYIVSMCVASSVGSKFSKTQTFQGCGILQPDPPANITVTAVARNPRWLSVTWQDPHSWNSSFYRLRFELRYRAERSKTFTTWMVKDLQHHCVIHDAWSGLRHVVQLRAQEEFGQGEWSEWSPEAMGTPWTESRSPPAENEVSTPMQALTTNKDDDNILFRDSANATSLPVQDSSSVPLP

- Kd [1]: 6.38 nM
- ka1 (two-state fit, first step) [1]: 92200 M⁻¹ s⁻¹
- ka2 (two-state fit, second step) [1]: 0.00751 s⁻¹
- kd1 (two-state fit, first step) [1]: 0.00932 s⁻¹
- kd2 (two-state fit, second step) [1]: 0.000506 s⁻¹
- Kd [2]: 48.1 nM
- ka1 (two-state fit, first step) [2]: 59900 M⁻¹ s⁻¹
- ka2 (two-state fit, second step) [2]: 0.0104 s⁻¹
- kd1 (two-state fit, first step) [2]: 0.0193 s⁻¹
- kd2 (two-state fit, second step) [2]: 0.00183 s⁻¹
Substance: chimeric cytokine IC7, Twin-Strep-tagged (IC7ts) (from UniProt P05231 30-212) (ligand)
